Where only a bound is given, the exact number is not on record here.

This is an account of results in paper PMC3834070.

Assay [1] has as its target T1, FpPG.S120N-N121K-S122D (Fusarium phyllophilum) (UniProt Q07181).
T1 sequence: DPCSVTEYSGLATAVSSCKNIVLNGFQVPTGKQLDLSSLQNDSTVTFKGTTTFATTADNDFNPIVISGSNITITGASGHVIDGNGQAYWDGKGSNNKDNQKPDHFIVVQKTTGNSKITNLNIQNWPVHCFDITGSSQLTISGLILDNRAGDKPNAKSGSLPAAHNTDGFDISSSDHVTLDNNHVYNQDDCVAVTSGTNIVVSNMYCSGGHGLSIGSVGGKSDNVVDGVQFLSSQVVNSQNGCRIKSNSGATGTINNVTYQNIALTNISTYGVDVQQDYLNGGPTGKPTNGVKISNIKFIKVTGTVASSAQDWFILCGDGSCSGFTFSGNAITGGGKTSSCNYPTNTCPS

For assay [2], the target named is T2, FpPG.A274T (Fusarium phyllophilum) (UniProt Q07181).
T2 sequence: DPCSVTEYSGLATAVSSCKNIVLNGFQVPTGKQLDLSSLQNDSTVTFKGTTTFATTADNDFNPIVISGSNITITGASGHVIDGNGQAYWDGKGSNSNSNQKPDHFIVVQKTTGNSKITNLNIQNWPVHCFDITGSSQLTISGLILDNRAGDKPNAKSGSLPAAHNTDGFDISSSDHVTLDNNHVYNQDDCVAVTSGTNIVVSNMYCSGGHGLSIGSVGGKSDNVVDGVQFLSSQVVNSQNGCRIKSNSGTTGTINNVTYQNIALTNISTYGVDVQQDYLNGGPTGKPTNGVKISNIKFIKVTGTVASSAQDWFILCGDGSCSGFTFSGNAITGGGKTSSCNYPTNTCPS

In assay [3] the target is T3, polygalacturonase of Fusarium phyllophilum (FpPG) (Fusarium phyllophilum) (UniProt Q07181).
T3 sequence: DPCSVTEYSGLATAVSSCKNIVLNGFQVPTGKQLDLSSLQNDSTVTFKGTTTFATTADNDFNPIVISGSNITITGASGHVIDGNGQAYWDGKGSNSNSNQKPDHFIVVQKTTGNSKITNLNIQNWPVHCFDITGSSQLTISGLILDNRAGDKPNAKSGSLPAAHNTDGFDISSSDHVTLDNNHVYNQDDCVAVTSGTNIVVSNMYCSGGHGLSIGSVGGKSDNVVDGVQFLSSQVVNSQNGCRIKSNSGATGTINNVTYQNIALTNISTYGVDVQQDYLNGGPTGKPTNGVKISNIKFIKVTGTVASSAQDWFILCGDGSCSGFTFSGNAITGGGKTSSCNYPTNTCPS

The target in assay [4] is Polygalacturonase 1 of Colletotrichum lupini (CluPG1) strain SHK78813 (Colletotrichum lupini).
The target in assay [5] is T4, FpPG.K310T (Fusarium phyllophilum) (UniProt Q07181).
T4 sequence: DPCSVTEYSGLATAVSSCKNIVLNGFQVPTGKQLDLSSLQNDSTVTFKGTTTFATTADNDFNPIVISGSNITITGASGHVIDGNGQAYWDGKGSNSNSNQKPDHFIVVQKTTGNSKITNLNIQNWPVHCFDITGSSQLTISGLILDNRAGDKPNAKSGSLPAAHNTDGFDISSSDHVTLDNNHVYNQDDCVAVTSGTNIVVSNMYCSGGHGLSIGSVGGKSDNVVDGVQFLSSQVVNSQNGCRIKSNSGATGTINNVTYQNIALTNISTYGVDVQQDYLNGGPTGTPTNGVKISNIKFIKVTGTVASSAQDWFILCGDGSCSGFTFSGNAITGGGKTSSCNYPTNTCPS

The target of assay [6] is T5, FpPG.S363K (Fusarium phyllophilum) (UniProt Q07181).
T5 sequence: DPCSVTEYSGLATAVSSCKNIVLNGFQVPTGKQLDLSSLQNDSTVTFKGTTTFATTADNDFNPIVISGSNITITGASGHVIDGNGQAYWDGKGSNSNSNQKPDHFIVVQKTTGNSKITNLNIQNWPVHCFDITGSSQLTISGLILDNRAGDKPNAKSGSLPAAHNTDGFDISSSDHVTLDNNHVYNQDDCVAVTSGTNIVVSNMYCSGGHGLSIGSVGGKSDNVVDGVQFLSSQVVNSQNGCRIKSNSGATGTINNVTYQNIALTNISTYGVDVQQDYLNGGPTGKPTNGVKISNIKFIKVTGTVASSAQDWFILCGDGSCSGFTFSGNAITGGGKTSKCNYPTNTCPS

Assay [7] has as its target T6, FpPG.L303E (Fusarium phyllophilum) (UniProt Q07181).
T6 sequence: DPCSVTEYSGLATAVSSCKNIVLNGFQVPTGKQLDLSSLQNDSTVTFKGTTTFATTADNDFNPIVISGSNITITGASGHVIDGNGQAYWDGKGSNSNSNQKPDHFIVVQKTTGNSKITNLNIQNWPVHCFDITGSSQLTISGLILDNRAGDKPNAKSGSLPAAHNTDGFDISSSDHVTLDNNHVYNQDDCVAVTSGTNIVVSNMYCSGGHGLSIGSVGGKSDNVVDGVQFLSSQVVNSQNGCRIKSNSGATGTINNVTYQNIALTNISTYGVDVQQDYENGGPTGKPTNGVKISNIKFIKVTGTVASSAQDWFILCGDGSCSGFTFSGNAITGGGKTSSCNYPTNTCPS

B1: PG-inhibiting protein 2 of Phaseolus vulgaris pv Pinto (PvPGIP2) (natural protein)
chain: ELCNPQDKQALLQIKKDLGNPTTLSSWLPTTDCCNRTWLGVLCDTDTQTYRVNNLDLSGLNLPKPYPIPSSLANLPYLNFLYIGGINNLVGPIPPAIAKLTQLHYLYITHTNVSGAIPDFLSQIKTLVTLDFSYNALSGTLPPSISSLPNLVGITFDGNRISGAIPDSYGSFSKLFTSMTISRNRLTGKIPPTFANLNLAFVDLSRNMLEGDASVLFGSDKNTQKIHLAKNSLAFDLGKVGLSKNLNGLDLRNNRIYGTLPQGLTQLKFLHSLNVSFNNLCGEIPQGGNLQRFDVSAYANNKCLCGSPLPACT
B1: the fold reduction of the efficiency of inhibition by PvPGIP2 against wild type FpPG, agar diffusion assay (Figure 5A) in assay [1] turned out to be 25 fold. Besides, the fold loss of inhibition by PvPGIP2 against wild type FpPG, agar diffusion assay (Figure 5A) in assay [2] was 150 fold. Moreover, the amount of PGIP causing 50% inhibition of one agarose diffusion unit of the PG (agar diffusion assay) in assay [3] came to 2000 pg; in assay [4] it was 2500 pg; in assay [5], 2000 pg; in assay [6] it was 2000 pg; in assay [7], 2000 pg.

B2: PvPGIP2.Q224K (natural protein)
chain: ELCNPQDKQALLQIKKDLGNPTTLSSWLPTTDCCNRTWLGVLCDTDTQTYRVNNLDLSGLNLPKPYPIPSSLANLPYLNFLYIGGINNLVGPIPPAIAKLTQLHYLYITHTNVSGAIPDFLSQIKTLVTLDFSYNALSGTLPPSISSLPNLVGITFDGNRISGAIPDSYGSFSKLFTSMTISRNRLTGKIPPTFANLNLAFVDLSRNMLEGDASVLFGSDKNTKKIHLAKNSLAFDLGKVGLSKNLNGLDLRNNRIYGTLPQGLTQLKFLHSLNVSFNNLCGEIPQGGNLQRFDVSAYANNKCLCGSPLPACT
On to B2, for which the amount of PGIP causing 50% inhibition of one agarose diffusion unit of the PG (agar diffusion assay); ∞ indicates > 1500 ng in assay [3], in assay [5] and in assay [6] was more than 1.5e+06 pg in each case. The amount of PGIP causing 50% inhibition of one agarose diffusion unit of the PG (agar diffusion assay) in assay [4] came out at 2500 pg; in assay [7] it was 20000 pg.

B3: PvPGIP2.Q224E (natural protein)
chain: ELCNPQDKQALLQIKKDLGNPTTLSSWLPTTDCCNRTWLGVLCDTDTQTYRVNNLDLSGLNLPKPYPIPSSLANLPYLNFLYIGGINNLVGPIPPAIAKLTQLHYLYITHTNVSGAIPDFLSQIKTLVTLDFSYNALSGTLPPSISSLPNLVGITFDGNRISGAIPDSYGSFSKLFTSMTISRNRLTGKIPPTFANLNLAFVDLSRNMLEGDASVLFGSDKNTEKIHLAKNSLAFDLGKVGLSKNLNGLDLRNNRIYGTLPQGLTQLKFLHSLNVSFNNLCGEIPQGGNLQRFDVSAYANNKCLCGSPLPACT
In the case of B3, the amount of PGIP causing 50% inhibition of one agarose diffusion unit of the PG (agar diffusion assay) was determined as 2000 pg in assay [3]; 1100 pg in assay [4]; 2000 pg in assay [5]; 2000 pg in assay [6]; 2000 pg in assay [7].
